{"source": "patent US20170121382A1", "about": "(NORTHWESTERN UNIVERSITY, published 2017)", "binders": {"B1": {"name": "full-length DMP1 (dentin matrix protein 1), endogenous mouse protein, ~100 kDa (other, UniProt O55188 17-503, looked up)", "chain": "LPVARYHNTESESSEERTGDLAGSPPPPTNSESSEESQASPEGQANSDHTDSSESGEELGYDRGQYRPAGGLSKSTGTGADKEDDEDDSGDDTFGDEDNDLGPEEGQWGGPSKLDSDEDSTDTTQSSEDSTSQENSAQDTPSDSKDHDSEDEADSRPEAGDSTQDSESEEQRVGGGSEGESSHGDGSEFDDEGMQSDDPESTRSDRGHARMSSAGIRSEESKGDHEPTSTQDSDDSQSVEFSSRKSFRRSHVSEEDYRGELTDSNSRETQSDSTEDTASKEESRSESQEDTAESQSQEDSPEGQDPSSESSEEAGEPSQESSSESQEGVTSESRGDNPDNTSQAGDQEDSESSEEDSLNTFSSSESQSTEEQADSESNESLSLSEESQESAQDGDSSSQEGLQSQSASTESRSQESQSEQDSRSEEDSDSQDSSRSKEESNSTGSASSSEEDIRPKNMEADSRKLIVDAYHNKPIGDQDDNDCQDGY"}}, "molecular_target": "T1, PHEX (phosphate-regulating gene with homology to endopeptidase on the X chromosome), endogenous mouse protein (mouse, UniProt P70669 1-749)", "T1 construct": "Endogenous PHEX of mouse bone extracts (coIP); The same id stands for the endogenous PHEX of mouse MC3T3-E1 cells and of mice in the functional rows; also called bone metallo-endopeptidase PHEX", "T1 sequence (looked up)": "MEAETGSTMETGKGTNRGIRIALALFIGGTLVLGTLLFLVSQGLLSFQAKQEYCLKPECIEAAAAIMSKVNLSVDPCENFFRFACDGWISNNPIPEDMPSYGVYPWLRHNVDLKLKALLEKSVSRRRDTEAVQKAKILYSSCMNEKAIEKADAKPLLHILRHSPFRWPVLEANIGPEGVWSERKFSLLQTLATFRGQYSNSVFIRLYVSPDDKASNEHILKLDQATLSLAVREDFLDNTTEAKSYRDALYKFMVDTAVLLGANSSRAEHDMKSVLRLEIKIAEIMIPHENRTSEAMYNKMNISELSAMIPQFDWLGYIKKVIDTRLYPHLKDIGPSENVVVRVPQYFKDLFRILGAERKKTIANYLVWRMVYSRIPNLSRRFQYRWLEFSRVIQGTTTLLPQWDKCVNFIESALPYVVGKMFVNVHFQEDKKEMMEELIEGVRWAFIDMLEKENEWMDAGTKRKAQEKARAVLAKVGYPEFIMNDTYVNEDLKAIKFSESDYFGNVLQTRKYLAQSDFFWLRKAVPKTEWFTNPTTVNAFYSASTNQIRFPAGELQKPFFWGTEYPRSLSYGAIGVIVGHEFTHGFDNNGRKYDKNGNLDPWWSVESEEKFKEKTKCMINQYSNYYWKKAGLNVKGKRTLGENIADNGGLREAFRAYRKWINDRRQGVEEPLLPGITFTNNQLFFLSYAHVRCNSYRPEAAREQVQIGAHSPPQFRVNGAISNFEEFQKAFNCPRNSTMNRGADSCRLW", "experiment": "coIP, anti-PHEX antibody-coated beads, mouse bone extracts, Western blot for DMP1", "method": "FIGS. 4A-C. (FIG. 4A) PHEX binds to full length DMP1 and cDMP1. Bone protein extracts from WT and DMP1ko/cDMP1Tg were incubated with anti-PHEX antibody-coated beads. […] Negative control ((−) CTR) was obtained from uncoated beads to evaluate non-specific binding. […] The constant of dissociation (KD) between PHEX and the entire DMP1 protein reflecting binding affinity is as strong as the KD obtained previously between rPHEX and the small 19 amino acid MEPE-ASARM peptide. Data are normalized by non-specific binding at baseline and expressed as relative units (RU) of response difference. (FIG. 4C) Dose-dependent binding of rPHEX to rDMP1, represented by quantitation of the SPR sensorgram, confirms binding specificity.\nBoth PHEX and DMP1 are expressed by osteocytes. The ASARM sequence binds to PHEX. Co-immunoprecipitation (coIP) of PHEX and DMP1 were performed in endogenous bone protein extracts to test the presence of binding between PHEX and cDMP1. Magnetic beads were covalently coated with a PHEX antibody (Ab) and incubated with protein extracts isolated from WT or DMP1ko/cDMP1Tg mice. Detection of DMP1 in the protein pull-downs eluted from the beads was performed by Western Blot analysis using an Ab targeting the C-terminus region (FIG. 4A). […] In the DMP1ko/cDMP1Tg extracts in which full-length DMP1 is not expressed, only cDMP1 fragments were detected. […]", "data": [{"binder": "B1", "values": [{"measurement": "binding result", "value": "binds"}]}]}
